Test results from doi:10.1101/590430 (bioRxiv, 2019).

Target: P. luminescens TcdA1 (TcA) (P. luminescens, UniProt Q9RN43 1-2516)
Assay: cryo-EM structure

B1: TcdB2 (TcB), as the TcB part of the TcdB2-TccC3 fusion protein (natural protein)
chain: MQNSQDFSITELSLPKGGGAITGMGEALTPTGPDGMAALSLPLPISAGRGYAPAFTLNYNSGAGNSPFGLGWDCNVMTIRRRTHFGVPHYDETDTFLGPEGEVLVVADQPRDESTLQGINLGATFTVTGYRSRLESHFSRLEYWQPKTTGKTDFWLIYSPDGQVHLLGKSPQARISNPSQTTQTAQWLLEASVSSRGEQIYYQYRAEDDTGCEADEITHHLQATAQRYLHIVYYGNRTASETLPGLDGSAPSQADWLFYLVFDYGERSNNLKTPPAFSTTGSWLCRQDRFSRYEYGFEIRTRRLCRQVLMYHHLQALDSKITEHNGPTLVSRLILNYDESAIASTLVFVRRVGHEQDGNVVTLPPLELAYQDFSPRHHAHWQPMDVLANFNAIQRWQLVDLKGEGLPGLLYQDKGAWWYRSAQRLGEIGSDAVTWEKMQPLSVIPSLQSNASLVDINGDGQLDWVITGPGLRGYHSQRPDGSWTRFTPLNALPVEYTHPRAQLADLMGAGLSDLVLIGPKSVRLYANTRDGFAKGKDVVQSGDITLPVPGADPRKLVAFSDVLGSGQAHLVEVSATKVTCWPNLGRGRFGQPITLPGFSQPATEFNPAQVYLADLDGSGPTDLIYVHTNRLDIFLNKSGNGFAEPVTLRFPEGLRFDHTCQLQMADVQGLGVASLILSVPHMSPHHWRCDLTNMKPWLLNEMNNNMGVHHTLRYRSSSQFWLDEKAAALTTGQTPVCYLPFPIHTLWQTETEDEISGNKLVTTLRYARGAWDGREREFRGFGYVEQTDSHQLAQGNAPERTPPALTKNWYATGLPVIDNALSTEYWRDDQAFAGFSPRFTTWQDNKDVPLTPEDDNSRYWFNRALKGQLLRSELYGLDDSTNKHVPYTVTEFRSQVRRLQHTDSRYPVLWSSVVESRNYHYERIASDPQCSQNITLSSDRFGQPLKQLSVQYPRRQQPAINLYPDTLPDKLLANSYDDQQRQLRLTYQQSSWHHLTNNTVRVLGLPDSTRSDIFTYGAENVPAGGLNLELLSDKNSLIADDKPREYLGQQKTAYTDGQNTTPLQTPTRQALIAFTETTVFNQSTLSAFNGSIPSDKLSTTLEQAGYQQTNYLFPRTGEDKVWVAHHGYTDYGTAAQFWRPQKQSNTQLTGKITLIWDANYCVVVQTRDAAGLTTSAKYDWRFLTPVQLTDINDNQHLITLDALGRPITLRFWGTENGKMTGYSSPEKASFSPPSDVNAAIELKKPLPVAQCQVYAPESWMPVLSQKTFNRLAEQDWQKLYNARIITEDGRICTLAYRRWVQSQKAIPQLISLLNNGPRLPPHSLTLTTDRYDHDPEQQIRQQVVFSDGFGRLLQAAARHEAGMARQRNEDGSLIINVQHTENRWAVTGRTEYDNKGQPIRTYQPYFLNDWRYVSNDSARQEKEAYADTHVYDPIGREIKVITAKGWFRRTLFTPWFTVNEDENDTAAEVKKVKM
  binding result: binds
